Test results taken from patent US20250026849A1 (ARCELLX, published 2025).
Changes are numbered by the printed parent chain.

B1: D-domain SEQ ID NO: 66 (designed binder)
chain: MGSWIEFQERLDAIFYRLHALGGSEAELAAFEKEIAAFESELQAYKGKGNPEVEDLRDAAATIRRQLQAYRHN
B2: D-domain SEQ ID NO: 67 (designed binder)
chain: B1 chain with E9Q, H19Y, D55N, A59M, T62I, R65K
B3: D-domain SEQ ID NO: 68 (designed binder)
chain: B1 chain with I5Y, E9S, H19F, D55K, D58E, T62S, R65T
B4: D-domain SEQ ID NO: 74 (designed binder)
chain: MGSWFEFQHRLEAISMRLHALGGSEAELAAFEKEIAAFESELQAYKGKGNPEVEELRWQAAYIRVVLQAYRHN
B5: D-domain SEQ ID NO: 105 (designed binder)
chain: B4 chain with F5I, Q8S, S15V, M16D, H19G, W58N, Q59T, Y62I, V66Y
B6: D-domain SEQ ID NO: 75 (designed binder)
chain: B4 chain with F5V, H9S, S15A, M16T, H19R, Y62W, V65M, V66M
B7: D-domain SEQ ID NO: 77 (designed binder)
chain: B4 chain with F5Y, H9V, E12Q, M16W, H19K, P51H, W58I, Y62L, V66M
B8: D-domain SEQ ID NO: 76 (designed binder)
chain: B4 chain with F5E, H9Y, E12G, S15A, M16A, H19Q, Y62M, V65F, V66M
B9: D-domain SEQ ID NO: 60 (designed binder)
chain: MGSWSEFAWRLEAIHQRLSALGGSEAELAAFEKEIAAFESELQAYKGKGNPEVESLRLFAAQIRENLQAYRHN
B10: D-domain SEQ ID NO: 106 (designed binder)
chain: MGSWEEFSDRLEAILRRLDALGGSEAELAAFEKEIAAFESELQAYKGKGNPEVEDLRFAAAIIRVQLQAYRHN
B11: D-domain SEQ ID NO: 107 (designed binder)
chain: B10 chain with E5M, D9H, E12D, L15H, R16E, D19Y
B12: D-domain SEQ ID NO: 51 (designed binder)
chain: MGSWHEFTWRLVAIQQRLQALGGSEAELAAFEKEIAAFESELQAYKGKGNPEVEELRKFAAKIRYELQAYRHN
B13: D-domain SEQ ID NO: 57 (designed binder)
chain: B9 chain with S5V, H15K, S19T, S55E, F59Y, Q62K, E65R, N66V
B14: D-domain SEQ ID NO: 56 (designed binder)
chain: B9 chain with S5V, E12T, H15D, S55N, L58F, F59Y, Q62K, E65S, N66H
B15: D-domain SEQ ID NO: 58 (designed binder)
chain: B9 chain with S5V, E12T, Q16T, S19W, L58K, F59Y, Q62K, E65K, N66Q
B16: D-domain SEQ ID NO: 55 (designed binder)
chain: B12 chain with H5V, T8S, V12E, Q15R, Q19T, E55D, F59Y, K62R, Y65G
B17: D-domain SEQ ID NO: 53 (designed binder)
chain: B12 chain with H5I, T8S, V12E, Q15R, E55S, K58S, F59Y, K62R, Y65Q
B18: D-domain SEQ ID NO: 59 (designed binder)
chain: MGSWTEFAWRLEAINQRLQALGGSEAELAAFEKEIAAFESELQAYKGKGKPEVEALRAYAAKIRTRLQAYRHN
B19: D-domain SEQ ID NO: 54 (designed binder)
chain: B12 chain with H5V, T8S, V12E, Q15R, E55S, K58S, F59Y, K62R, Y65Q
B20: D-domain SEQ ID NO: 52 (designed binder)
chain: B12 chain with V12I, Q15R, Q16E, Q19F, K58E, F59Y, K62S, Y65N, E66M
B21: D-domain SEQ ID NO: 61 (designed binder)
chain: B9 chain with S5N, E12I, H15N, S19W, L58H, Q62N, E65N, N66D
B22: D-domain SEQ ID NO: 70 (designed binder)
chain: MGSWSEFYDRLYAINQRLFALGGSEAELAAFEKEIAAFESELQAYKGKGNPEVEDLRWYAAFIRAQLQAYRHN
B23: D-domain SEQ ID NO: 71 (designed binder)
chain: B22 chain with S5Y, Y12D, N15V, Q16H, F19D, D55N, F62M, A65V, Q66R
B24: D-domain SEQ ID NO: 62 (designed binder)
chain: MGSWTEFAWRLIAIDQRLMALGGSEAELAAFEKEIAAFESELQAYKGKGNPEVEILRELAAEIRFHLQAYRHN
B25: D-domain SEQ ID NO: 63 (designed binder)
chain: MGSWSEFMNRLDAITYRLVALGGSEAELAAFEKEIAAFESELQAYKGKGNPEVELLRHYAAQIRDSLQAYRHN
B26: D-domain SEQ ID NO: 64 (designed binder)
chain: B25 chain with S5T, N9E, T15S, V19W, L55V, H58D, Q62I, D65N
B27: D-domain SEQ ID NO: 69 (designed binder)
chain: B22 chain with Y8I, Y12D, N15T, Q16Y, D55N, A61G, F62V, A65E
B28: D-domain SEQ ID NO: 65 (designed binder)
chain: B25 chain with S5A, N9D, V19W, L55E, H58G, Q62I, D65S, S66E
B29: D-domain SEQ ID NO: 98 (designed binder)
chain: MGSWSEFRGRLQAIHSRLNALGGSEAELAAFEKEIAAFESELQAYKGKGNPEVEELRYSAAIIRIYLQAYRHN
B30: D-domain SEQ ID NO: 102 (designed binder)
chain: MGSWVEFYDRLAAIRKRLYALGGSEAELAAFEKEIAAFESELQAYKGKGNPEVEELRFRAALIRIWLQAYRHN
B31: D-domain SEQ ID NO: 108 (designed binder)
chain: B30 chain with V5S, Y8Q, D9Q, A12H, K16T, R59E, L62I, I65V, W66M
B32: D-domain SEQ ID NO: 109 (designed binder)
chain: B10 chain with E5Y, S8Q, D9N, E12G, L15N, D19N, D55E, A59E, Q66M
B33: D-domain SEQ ID NO: 110 (designed binder)
chain: B30 chain with V5Q, Y8T, D9G, A12H, K16H, Y19E, R59E, L62Y, I65V
B34: D domain SEQ ID NO: 851 (designed binder)
chain: MGSWHEFYDRLDAIYFRLWALGGSEAELAAFEKEIAAFESELQAYKGKGNPEVELLRLLAAEIRKELQAYRHN
B35: D domain SEQ ID NO: 887 (designed binder)
chain: MGSWTEFWHRLEAIDSRLWALGGSEAELAAFEKEIAAFESELQAYKGKGNPEVESLREHAAHIRVWLQAYRHN
B36: D domain SEQ ID NO: 880 (designed binder)
chain: B35 chain with T5V, W8H, H9Y, E12Q, S16A, S55E, E58V, V65K
B37: D domain SEQ ID NO: 859 (designed binder)
chain: B35 chain with T5F, W8Y, H9D, E12N, S16A, S55N, E58V, H62A, V65E
B38: D domain SEQ ID NO: 868 (designed binder)
chain: B35 chain with T5L, W8Y, E12N, E58D, V65E
B39: D domain SEQ ID NO: 881 (designed binder)
chain: B35 chain with T5V, W8V, H9G, E12N, S16A, S55E, E58H, H62E, V65N
B40: D domain SEQ ID NO: 882 (designed binder)
chain: MGSWNEFMDRLNAIDNRLWALGGSEAELAAFEKEIAAFESELQAYKGKGNPEVENLRKQAASIRLWLQAYRHN
B41: D domain SEQ ID NO: 878 (designed binder)
chain: B35 chain with T5S, W8V, H9K, E12D, S16Q, E58V, H62A, V65A
B42: D domain SEQ ID NO: 876 (designed binder)
chain: B40 chain with N5F, M8Y, D9E, N16S, N55K, K58A, Q59H, L65T
B43: D domain SEQ ID NO: 879 (designed binder)
chain: B35 chain with T5E, W8Y, H9Y, S16A, W19F, S55E, E58V, V65D
B44: D domain SEQ ID NO: 884 (designed binder)
chain: B35 chain with T5Y, W8V, H9V, E12F, S16E, V65S
B45: D domain SEQ ID NO: 877 (designed binder)
chain: B35 chain with T5I, W8Y, H9W, S16Q, S55D, E58V, H62A, V65W
B46: D domain SEQ ID NO: 883 (designed binder)
chain: B40 chain with M8F, D9Q, N16E, N55D, K58Q, Q59H, S62N, L65W
B47: D domain SEQ ID NO: 854 (designed binder)
chain: MGSWVEFSGRLIAIDNRLWALGGSEAELAAFEKEIAAFESELQAYKGKGNPEVEYLRMWAAEIRYILQAYRHN
B48: D domain SEQ ID NO: 856 (designed binder)
chain: B47 chain with V5H, S8M, G9E, N16G, M58F, W59V, E62F, Y65D, I66V
B49: D domain SEQ ID NO: 855 (designed binder)
chain: B47 chain with S8H, G9H, I12F, N16E, W59V
B50: D domain SEQ ID NO: 852 (designed binder)
chain: B47 chain with V5H, S8I, G9T, I12E, N16Q, M58F, Y65F
B51: D domain SEQ ID NO: 853 (designed binder)
chain: B47 chain with V5M, S8F, G9D, I12V, N16E, Y65F, I66L
B52: D domain SEQ ID NO: 857 (designed binder)
chain: MGSWKEFIQRLDAIHYRLWALGGSEAELAAFEKEIAAFESELQAYKGKGNPEVEYLRFVAAFIRFELQAYRHN
B53: D domain SEQ ID NO: 858 (designed binder)
chain: B52 chain with K5S, Q9F, Y16S, W19Q, V59I, F62E, F65L, E66K

The binders below were run against T1, BCMA (Homo sapiens (Human), UniProt Q02223 1-54, limits assumed) (assay: ELISA, format not described).
T1 sequence: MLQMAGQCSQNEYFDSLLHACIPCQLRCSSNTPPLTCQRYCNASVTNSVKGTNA
Parameters: unit not given here
Work on B1 yielded an ELISA_avg of 18.6. B2 gave an ELISA_avg of 20. Work on B3 yielded an ELISA_avg of 14.1. Work on B4 yielded an ELISA_avg of 4.05. For B5, the ELISA_avg was 18.7. B6 was tested, and the ELISA_avg was 18. In the case of B7, the ELISA_avg is reported as 14.2. In the case of B8, the ELISA_avg is reported as 3.11. With B9 the ELISA_avg was 18. B10 gave an ELISA_avg of 9.08. Binder B11 has an ELISA_avg of 6.3. For B12, the ELISA_avg was 19.5. For B13, the ELISA_avg was 8.9. Binder B14 has an ELISA_avg of 8.43. For B15, the ELISA_avg was 6.08. In the case of B16, the ELISA_avg is reported as 21.3. For B17, the ELISA_avg was 9.92. B18 was tested, and the ELISA_avg was 15.1. B19 was tested, and the ELISA_avg was 19.1. For B20, the ELISA_avg was 13. Work on B21 yielded an ELISA_avg of 11.5. Binder B22 has an ELISA_avg of 5.98. B23 showed an ELISA_avg of 14.7. With B24 the ELISA_avg was 8.55. For B25, the ELISA_avg was 12.9. Work on B26 yielded an ELISA_avg of 9.87. In the case of B27, the ELISA_avg is reported as 10.2. B28 showed an ELISA_avg of 10.8. B29 gave an ELISA_avg of 7.58. In the case of B30, the ELISA_avg is reported as 9.76. B31 gave an ELISA_avg of 11.6. With B32 the ELISA_avg was 4.68. With B33 the ELISA_avg was 3.31.

The binders below were run against T2, P26 (human, UniProt P02771 381-609, limits assumed) (assay: ELISA, format not described).
T2 construct: also called AFP p26
T2 sequence: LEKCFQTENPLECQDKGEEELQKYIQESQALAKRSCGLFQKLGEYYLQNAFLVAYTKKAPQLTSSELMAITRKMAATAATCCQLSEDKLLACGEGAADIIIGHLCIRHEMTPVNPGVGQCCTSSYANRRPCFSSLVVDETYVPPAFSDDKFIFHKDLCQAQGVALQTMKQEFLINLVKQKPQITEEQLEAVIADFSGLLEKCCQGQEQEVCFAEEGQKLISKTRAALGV
Parameters: unit not given here
B34 was tested, and the ELISA_avg was 9.6. In the case of B35, the ELISA_avg is reported as 13.2. With B36 the ELISA_avg was 14.8. B37 gave an ELISA_avg of 5.92. Work on B38 yielded an ELISA_avg of 19.2. B39 showed an ELISA_avg of 26. B40 showed an ELISA_avg of 10. B41 gave an ELISA_avg of 27. In the case of B42, the ELISA_avg is reported as 27.1. With B43 the ELISA_avg was 30.3. B44 was tested, and the ELISA_avg was 18.2. Binder B45 has an ELISA_avg of 9.4. B46 was tested, and the ELISA_avg was 28.7. With B47 the ELISA_avg was 5.28. For B48, the ELISA_avg was 17.9. Binder B49 has an ELISA_avg of 21.4. Binder B50 has an ELISA_avg of 16.9. B51 gave an ELISA_avg of 18.6. B52 showed an ELISA_avg of 18.4. In the case of B53, the ELISA_avg is reported as 28.3.
